Publication doi:10.1101/2024.07.10.601956

Biological target: Synthetic Mtln protein (UniProt Q8NCU8)
Experiment: mass photometry

For “Synthetic Mtln protein (from UniProt Q8NCU8 1-56) (natural protein)”, the stoichiometry N was 6.
